Legend:
GLI2 level in Daoy cells = settings: glycan lost; control: DMSO
[1] = IP and acetylation immunoblot
[2] = Bcl2 promoter luciferase, HEK293T; settings: WT Gli2
[3] = Gli2 level in primary GNPs; settings: glycan lost; control: untreated GNPs
[4] = IP immunoblot from P30 cerebellum; settings: glycan lost; control: SmoM2Atoh1 mice

B1: human GLI2: OSMI-1 (protein)
parent chain: METSASATASEKQEAKSGILEAAGFPDPGKKASPLVVAAAAAAAVAAQGVPQHLLPPFHAPLPIDMRHQEGRYHYEPHSVHGVHGPPALSGSPVISDISLIRLSPHPAGPGESPFNAPHPYVNPHMEHYLRSVHSSPTLSMISAARGLSPADVAQEHLKERGLFGLPAPGTTPSDYYHQMTLVAGHPAPYGDLLMQSGGAASAPHLHDYLNPVDVSRFSSPRVTPRLSRKRALSISPLSDASLDLQRMIRTSPNSLVAYINNSRSSSAASGSYGHLSAGALSPAFTFPHPINPVAYQQILSQQRGLGSAFGHTPPLIQPSPTFLAQQPMALTSINATPTQLSSSSNCLSDTNQNKQSSESAVSSTVNPVAIHKRSKVKTEPEGLRPASPLALTQGQVSGHGSCGCALPLSQEQLADLKEDLDRDDCKQEAEVVIYETNCHWEDCTKEYDTQEQLVHHINNEHIHGEKKEFVCRWQACTREQKPFKAQYMLVVHMRRHTGEKPHKCTFEGCSKAYSRLENLKTHLRSHTGEKPYVCEHEGCNKAFSNASDRAKHQNRTHSNEKPYICKIPGCTKRYTDPSSLRKHVKTVHGPDAHVTKKQRNDVHLRTPLLKENGDSEAGTEPGGPESTEASSTSQAVEDCLHVRAIKTESSGLCQSSPGAQSSCSSEPSPLGSAPNNDSGVEMPGTGPGSLGDLTALDDTPPGADTSALAAPSAGGLQLRKHMTTMHRFEQLKKEKLKSLKDSCSWAGPTPHTRNTKLPPLPGSGSILENFSGSGGGGPAGLLPNPRLSELSASEVTMLSQLQERRDSSTSTVSSAYTVSRRSSGISPYFSSRRSSEASPLGAGRPHNASSADSYDPISTDASRRSSEASQCSGGSGLLNLTPAQQYSLRAKYAAATGGPPPTPLPGLERMSLRTRLALLDAPERTLPAGCPRPLGPRRGSDGPTYGHGHAGAAPAFPHEAPGGGARRASDPVRRPDALSLPRVQRFHSTHNVNPGPLPPCADRRGLRLQSHPSTDGGLARGAYSPRPPSISENVAMEAVAAGVDGAGPEADLGLPEDDLVLPDDVVQYIKAHASGALDEGTGQVYPTESTGFSDNPRLPSPGLHGQRRMVAADSNVGPSAPMLGGCQLGFGAPSSLNKNNMPVQWNEVSSGTVDALASQVKPPPFPQGNLAVVQQKPAFGQYPGYSPQGLQASPGGLDSTQPHLQPRSGAPSQGIPRVNYMQQLRQPVAGSQCPGMTTTMSPHACYGQVHPQLSPSTISGALNQFPQSCSNMPAKPGHLGHPQQTEVAPDPTTMGNRHRELGVPDSALAGVPPPHPVQSYPQQSHHLAASMSQEGYHQVPSLLPARQPGFMEPQTGPMGVATAGFGLVQPRPPLEPSPTGRHRGVRAVQQQLAYARATGHAMAAMPSSQETAEAVPKGAMGNMGSVPPQPPPQDAGGAPDHSMLYYYGQIHMYEQDGGLENLGSCQVMRSQPPQPQACQDSIQPQPLPSPGVNQVSSTVDSQLLEAPQIDFDAIMDDGDHSSLFSGALSPSLLHSLSQNSSRLTTPRNSLTLPSIPAGISNMAVGDMSSMLTSLAEESKFLNMMT
- expression_or_secretion (GLI2 level in Daoy cells): decreases

B2: Gli2 (GLI family zinc finger 2): OSMI-1 (protein)
parent chain: METSAPAPALEKKEAKSGLLEDSSFPDPGKKACPLAVAAAVAAHGVPQQLLPAFHAPLPIDMRHQEGRYHYDPHSVHSVHGPPTLSGSPVISDISLIRLSPHPAGPGESPFSAHHPYVNPHMEHYLRSVHSSPTLSMISAARGLSPADVAHEHLKERGLFSLAAPGTNPSDYYHQMTLMASHPTPYGDLLMQSGGAASAPHLHDYLNPVDASRFSSPRVTPRLSRKRALSISPLSDASLDLQRMIRTSPNSLVAYINNSRSSSAASGSYGHLSAGALSPAFTFPHPINPVAYQQILSQQRGLGSAFGHTPPLIQPSPTFLAQQPMTLTSISTMPTQLSSSSSNCLNDANQNKQNSESAVSSTVNPITIHKRSKVKTEAEGLRPASPLGLTQEQLADLKEDLDRDDCKQEAEVVIYETNCHWADCTKEYDTQEQLVHHINNEHIHGEKKEFVCRWQACTREQKPFKAQYMLVVHMRRHTGEKPHKCTFEGCSKAYSRLENLKTHLRSHTGEKPYVCEHEGCNKAFSNASDRAKHQNRTHSNEKPYICKIPGCTKRYTDPSSLRKHVKTVHGPDAHVTKKQRNDVHVRAPLLKENGDNEASAEPGGRGPEESVEASSTSHTVEDCLHIKAIKTESSGLCQSSPGAQSSCSSEPSPLGSAPNNDSGMEMPGTGPGSLGDLTALADTCPGADTSALAAPSTGGLQLRKHMSTVHRFEQLKREKLKSLKDSCSWAGPAPHTRNTKLPPLPVNGSVLENFNNTGGGGPAGLLPSQRLPELTEVTMLSQLQERRDSSTSTMSSAYTVSRRSSGISPYFSSRRSSEASPLGGLRPHNASSADSYDPISTDASRRSSEASQCSGGGPGLLNLTPAQQYNLRAKYAAATGGPPPTPLPGLDRVSLRTRLALLDAPERALPGACPHPLGPRRGSDGPTYSHGHGHGYAGAAPAFPHEGPNSSTRRASDPVRRPDPLILPRVQRFHSTHNMNPGSLPPCADRRGLHVQSHPSVDSNLTRNAYSPRPPSINENVVMEAVAAGVDGPGLECDLGLVEDELVLPDDVVQYIKAHTGGTLDDGIRQGYPTEGTGFPENSKLPSPGLQGHRRLAAADSNMGPSAPGLGGCQLSYSPSSNLNKSNMPVQWNEVSSGTVDALPTQVKPPPFPHSNLAVVQQKPAFGQYPGYNPQSVQSSSGGLDSTQPHLQLRGAPSASRGSYTQQPRQPAAGSQCLGMSAAMSPQASYSQAHPQLSPNIVSGSLNQFSPSCSNMAAKPSHLGLPQQMEVVPNATIMNGHQREHGVPNSSLAAVSQPHPVLSYPQQDSYQQGSNLLSSHQPGFMESQQNAGFGLMQPRPPLEPNTASRHRGVRSGQQQLYARTTGQAMVTSANQETAEAMPKGPAGTMVSLAPQPSQDTGRAQDQNTLYYYGQIHMYEQNGGCPAVQPQPPQPQACSDSIQPEPLPSPGVNQVSSTVDSQLLEPPQIDFDAIMDDGDHSSLFSGALSPTLLHNLSQNSSRLTTPRNSLTLPSIPAGISNMAVGDMSSMLTSLAEESKFLNMMT
- other: Gli2 acetylation ([1]; glycan lost, control: untreated, WT Gli2): increases
- other: transcriptional activity ([2]; glycan lost, control: DMSO): decreases
- expression_or_secretion [3]: decreases

B3: Gli2 (GLI family zinc finger 2): SmoM2Atoh1;OGTAtoh1 (OGT knockout in GNPs) (protein)
parent chain: METSAPAPALEKKEAKSGLLEDSSFPDPGKKACPLAVAAAVAAHGVPQQLLPAFHAPLPIDMRHQEGRYHYDPHSVHSVHGPPTLSGSPVISDISLIRLSPHPAGPGESPFSAHHPYVNPHMEHYLRSVHSSPTLSMISAARGLSPADVAHEHLKERGLFSLAAPGTNPSDYYHQMTLMASHPTPYGDLLMQSGGAASAPHLHDYLNPVDASRFSSPRVTPRLSRKRALSISPLSDASLDLQRMIRTSPNSLVAYINNSRSSSAASGSYGHLSAGALSPAFTFPHPINPVAYQQILSQQRGLGSAFGHTPPLIQPSPTFLAQQPMTLTSISTMPTQLSSSSSNCLNDANQNKQNSESAVSSTVNPITIHKRSKVKTEAEGLRPASPLGLTQEQLADLKEDLDRDDCKQEAEVVIYETNCHWADCTKEYDTQEQLVHHINNEHIHGEKKEFVCRWQACTREQKPFKAQYMLVVHMRRHTGEKPHKCTFEGCSKAYSRLENLKTHLRSHTGEKPYVCEHEGCNKAFSNASDRAKHQNRTHSNEKPYICKIPGCTKRYTDPSSLRKHVKTVHGPDAHVTKKQRNDVHVRAPLLKENGDNEASAEPGGRGPEESVEASSTSHTVEDCLHIKAIKTESSGLCQSSPGAQSSCSSEPSPLGSAPNNDSGMEMPGTGPGSLGDLTALADTCPGADTSALAAPSTGGLQLRKHMSTVHRFEQLKREKLKSLKDSCSWAGPAPHTRNTKLPPLPVNGSVLENFNNTGGGGPAGLLPSQRLPELTEVTMLSQLQERRDSSTSTMSSAYTVSRRSSGISPYFSSRRSSEASPLGGLRPHNASSADSYDPISTDASRRSSEASQCSGGGPGLLNLTPAQQYNLRAKYAAATGGPPPTPLPGLDRVSLRTRLALLDAPERALPGACPHPLGPRRGSDGPTYSHGHGHGYAGAAPAFPHEGPNSSTRRASDPVRRPDPLILPRVQRFHSTHNMNPGSLPPCADRRGLHVQSHPSVDSNLTRNAYSPRPPSINENVVMEAVAAGVDGPGLECDLGLVEDELVLPDDVVQYIKAHTGGTLDDGIRQGYPTEGTGFPENSKLPSPGLQGHRRLAAADSNMGPSAPGLGGCQLSYSPSSNLNKSNMPVQWNEVSSGTVDALPTQVKPPPFPHSNLAVVQQKPAFGQYPGYNPQSVQSSSGGLDSTQPHLQLRGAPSASRGSYTQQPRQPAAGSQCLGMSAAMSPQASYSQAHPQLSPNIVSGSLNQFSPSCSNMAAKPSHLGLPQQMEVVPNATIMNGHQREHGVPNSSLAAVSQPHPVLSYPQQDSYQQGSNLLSSHQPGFMESQQNAGFGLMQPRPPLEPNTASRHRGVRSGQQQLYARTTGQAMVTSANQETAEAMPKGPAGTMVSLAPQPSQDTGRAQDQNTLYYYGQIHMYEQNGGCPAVQPQPPQPQACSDSIQPEPLPSPGVNQVSSTVDSQLLEPPQIDFDAIMDDGDHSSLFSGALSPTLLHNLSQNSSRLTTPRNSLTLPSIPAGISNMAVGDMSSMLTSLAEESKFLNMMT
- other: Gli2 acetylation [4]: increases

B4: Gli2 (GLI family zinc finger 2): OGT overexpression (protein)
parent chain: METSAPAPALEKKEAKSGLLEDSSFPDPGKKACPLAVAAAVAAHGVPQQLLPAFHAPLPIDMRHQEGRYHYDPHSVHSVHGPPTLSGSPVISDISLIRLSPHPAGPGESPFSAHHPYVNPHMEHYLRSVHSSPTLSMISAARGLSPADVAHEHLKERGLFSLAAPGTNPSDYYHQMTLMASHPTPYGDLLMQSGGAASAPHLHDYLNPVDASRFSSPRVTPRLSRKRALSISPLSDASLDLQRMIRTSPNSLVAYINNSRSSSAASGSYGHLSAGALSPAFTFPHPINPVAYQQILSQQRGLGSAFGHTPPLIQPSPTFLAQQPMTLTSISTMPTQLSSSSSNCLNDANQNKQNSESAVSSTVNPITIHKRSKVKTEAEGLRPASPLGLTQEQLADLKEDLDRDDCKQEAEVVIYETNCHWADCTKEYDTQEQLVHHINNEHIHGEKKEFVCRWQACTREQKPFKAQYMLVVHMRRHTGEKPHKCTFEGCSKAYSRLENLKTHLRSHTGEKPYVCEHEGCNKAFSNASDRAKHQNRTHSNEKPYICKIPGCTKRYTDPSSLRKHVKTVHGPDAHVTKKQRNDVHVRAPLLKENGDNEASAEPGGRGPEESVEASSTSHTVEDCLHIKAIKTESSGLCQSSPGAQSSCSSEPSPLGSAPNNDSGMEMPGTGPGSLGDLTALADTCPGADTSALAAPSTGGLQLRKHMSTVHRFEQLKREKLKSLKDSCSWAGPAPHTRNTKLPPLPVNGSVLENFNNTGGGGPAGLLPSQRLPELTEVTMLSQLQERRDSSTSTMSSAYTVSRRSSGISPYFSSRRSSEASPLGGLRPHNASSADSYDPISTDASRRSSEASQCSGGGPGLLNLTPAQQYNLRAKYAAATGGPPPTPLPGLDRVSLRTRLALLDAPERALPGACPHPLGPRRGSDGPTYSHGHGHGYAGAAPAFPHEGPNSSTRRASDPVRRPDPLILPRVQRFHSTHNMNPGSLPPCADRRGLHVQSHPSVDSNLTRNAYSPRPPSINENVVMEAVAAGVDGPGLECDLGLVEDELVLPDDVVQYIKAHTGGTLDDGIRQGYPTEGTGFPENSKLPSPGLQGHRRLAAADSNMGPSAPGLGGCQLSYSPSSNLNKSNMPVQWNEVSSGTVDALPTQVKPPPFPHSNLAVVQQKPAFGQYPGYNPQSVQSSSGGLDSTQPHLQLRGAPSASRGSYTQQPRQPAAGSQCLGMSAAMSPQASYSQAHPQLSPNIVSGSLNQFSPSCSNMAAKPSHLGLPQQMEVVPNATIMNGHQREHGVPNSSLAAVSQPHPVLSYPQQDSYQQGSNLLSSHQPGFMESQQNAGFGLMQPRPPLEPNTASRHRGVRSGQQQLYARTTGQAMVTSANQETAEAMPKGPAGTMVSLAPQPSQDTGRAQDQNTLYYYGQIHMYEQNGGCPAVQPQPPQPQACSDSIQPEPLPSPGVNQVSSTVDSQLLEPPQIDFDAIMDDGDHSSLFSGALSPTLLHNLSQNSSRLTTPRNSLTLPSIPAGISNMAVGDMSSMLTSLAEESKFLNMMT
- other: Gli2 acetylation ([1]; glycan gained, control: without OGT overexpression): decreases
- other: transcriptional activity ([2]; glycan gained, control: pEGFP-C1 vector): increases

Source: PMC9407465
